System: MS2 coat protein
Assay: apparent KD of MS2 coat protein; designed switch direction (-1 OFF switch, 1 ON switch): -1; higher = weaker reporter binding
Conditions: Eterna round: R98
Method: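 RNA-MaP: designed FMN/MS2 RNA switches (84 nt design region) are transcribed on-chip within common flanks and titrated with SNAP-549-labelled MS2 coat protein (about 1-3000 nM) in 100 mM Tris pH 7.5, 80 mM KCl, 4 mM MgCl2, without or with 200 uM FMN. Median apparent KD per design; activation ratio = KD,OFF / KD,ON.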

## ACAUGGAAGCGAGGAUAUGCGGCGGAUUUAAACGCAGAAGGCGUUUAUUUAACUCGCAAUAACAUGAGGAUCACCCAUGUAUAA [AK-NGROCr2-ExNG1-5.1]
Input ligand: FMN 200 uM
  apparent KD of MS2 coat protein: 0.0594 µM
Input ligand: none
  apparent KD of MS2 coat protein: 0.0559 µM

— the supplement of paper PMC9170038
